Test results as given in EP4328239A1 (dated 2024).
Positions count from the first letter of the chain named.

Experiments:
[1] = target: T1, MAGEA1 peptide on HLA-B*44:03 (human); assay: cytokine release
T1 peptide: AETSYVKVL

[2] = target: T2, MAGEA1 peptide on HLA-B*44:03 (human); assay: cytokine release
T2 peptide: ALAETSYVKV

[3] = target: T3, MAGEA1 peptide on HLA-B*44:03 (human); assay: cytokine release
T3 peptide: AETSYVKVLE

[4] = target: T4, MAGEA1 peptide on HLA-B*44:03 (human); assay: luciferase kill assay, 18 h; TCR-transduced CD8+ T cells against K562-HLA-B4403-MAGE-A1, cells that express the antigen (full-length MAGEA1); two donors; full-length, on cells
T4 peptide: LAETSYVKVL

[5] = target: T5, MAGEA1 peptide on HLA-B*07:02 (human); assay: cytokine release
T5 peptide: ARVRFFFPSL

[6] = target: T6, MAGEA1 peptide on HLA-B*07:02 (human); assay: cytokine release
T6 peptide: RVRFFFPSLR

[7] = target: T7, MAGEA1 peptide on HLA-A*03:01 (human); assay: cytokine release
T7 peptide: LFRAVITKK

[8] = target: T8, MAGEA1 peptide on HLA-A*03:01 (human); assay: cytokine release
T8 peptide: SLFRAVITKK

[9] = target: T9, MAGEA1 peptide on HLA-A*03:01 (human); assay: cytokine release
T9 peptide: ESLFRAVITK

[10] = target: T10, MAGEA1 peptide on HLA-B*57:03 (human); assay: cytokine release
T10 peptide: VADLVGFLL

[11] = target: T11, MAGEA1 peptide on HLA-B*57:03 (human); assay: cytokine release
T11 peptide: KVADLVGFL

[12] = target: T12, MAGEA1 peptide on HLA-B*07:02 (human); assay: luciferase kill assay, 18 h; TCR-transduced CD8+ T cells against K562-HLA-B0702-MAGE-A1, cells that express the antigen (full-length MAGEA1); full-length, on cells
T12 peptide: RVRFFFPSL

[13] = target: T13, MAGEA1 peptide on HLA-B*44:03 (human); assay: killing
T13 peptide: KVADLVGFLL

[14] = target: T14, MAGEA1 peptide on HLA-B*44:03 (human); assay: cytokine release
T14 peptide: ADLVGFLLLK

[15] = target: T15, MAGEA1 peptide on HLA-B*44:03 (human); assay: cytokine release
T15 peptide: VADLVGFLL

[16] = target: T16, MAGEA1 peptide on HLA-A*29:02 (human); assay: cytokine release
T16 peptide: LVGFLLLKY

[17] = target: T17, MAGEA1 peptide on HLA-A*29:02 (human); assay: cytokine release
T17 peptide: DLVGFLLLKY

[18] = target: T18, MAGEA1 peptide on HLA-A*26:01 (human); assay: cytokine release
T18 peptide: EVYDGREHSA

[19] = target: T19, MAGEA1 peptide on HLA-B*44:03 (human); assay: killing
T19 peptide: EEGPSTSCI

[20] = target: T20, MAGEA1 peptide on HLA-A*02:01 (human); assay: luciferase kill assay, 18 h; TCR-transduced CD8+ T cells against K562-HLA-A0201-MAGE-A1, cells that express the antigen (full-length MAGEA1); full-length, on cells
T20 peptide: KVLEYVIKV

[21] = target: T21, MAGEA1 peptide on HLA-A*02:01 (human); assay: cytokine release
T21 peptide: VKVLEYVIKV

[22] = target: T22, MAGEA1 peptide on HLA-A*02:01 (human); assay: cytokine release
T22 peptide: KVLEYVIKVS

B1: TCR5 (TCR, V domains shown)
Valpha: GQQLNQSPQSMFIQEGEDVSMNCTSSSIFNTWLWYKQEPGEGPVLLIALYKAGELTSNGRLTAQFGITRKDSFLNISASIPSDVGIYFCAGLRDNYGQNFVFGPGTRLSVLP
Vbeta: DGGITQSPKYLFRKEGQNVTLSCEQNLNHDAMYWYRQDPGQGLRLIYYSQIVNDFQKGDIAEGYSVSREKKESFPLTVTSAQKNPTAFYLCASRVGGFEGYTFGSGTRLTVV
B1: recognises [1]; recognises [2]; recognises [3]. The “EC50 killing capacity (E:T ratio at which 50% of target cells were killed)” value [4] was 0.4 E:T ratio.

B2: TCR23 (TCR, V domains shown)
Valpha: AQKVTQAQTEISVVEKEDVTLDCVYETRDTTYYLFWYKQPPSGELVFLIRRNSFDEQNEISGRYSWNFQKSTSSFNFTITASQVVDSAVYFCALSVTYTGNQFYFGTGTSLTVIP
Vbeta: DSGVTQTPKHLITATGQRVTLRCSPRSGDLSVYWYQQSLDQGLQFLIQYYNGEERAKGNILERFSAQQFPDLHSELNLSSLELGDSALYFCASSVQGQGTDTQYFGPGTRLTVL
B2: recognises [5]; recognises [6].

B3: TCR24 (TCR, V domains shown)
Valpha: KNQVEQSPQSLIILEGKNCTLQCNYTVSPFSNLRWYKQDTGRGPVSLTIMTFSENTKSNGRYTATLDADTKQSSLHITASQLSDSASYICVVSNNAGNMLTFGGGTRLMVKP
Vbeta: DAMVIQNPRYQVTQFGKPVTLSCSQTLNHNVMYWYQQKSSQAPKLLFHYYDKDFNNEADTPDNFQSRRPNTSFCFLDIRSPGLGDTAMYLCATSRESLGRDEQFFGPGTRLTVL
B3: recognises [7]; recognises [8]; recognises [9].

B4: TCR1 (TCR, V domains shown)
Valpha: GNSVTQMEGPVTLSEEAFLTINCTYTATGYPSLFWYVQYPGEGLQLLLKATKADDKGSNKGFEATYRKETTSFHLEKGSVQVSDSAVYFCALSGGGSYIPTFGRGTSLIVHP
Vbeta: EAGVAQSPRYKIIEKRQSVAFWCNPISGHATLYWYQQILGQGPKLLIQFQNNGVVDDSQLPKDRFSAERLKGVDSTLKIQPAKLEDSAVYLCASSSPGQLNTEAFFGQGTRLTVV
B4: recognises [10]; recognises [11].

B5: TCR18.2 (TCR, V domains shown)
Valpha: GQQVMQIPQYQHVQEGEDFTTYCNSSTTLSNIQWYKQRPGGHPVFLIQLVKSGEVKKQKRLTFQFGEAKKNSSLHITATQTTDVGTYFCANRDNYGQNFVFGPGTRLSVLP
Vbeta: EAQVTQNPRYLITVTGKKLTVTCSQNMNHEYMSWYRQDPGLGLRQIYYSMNVEVTDKGDVPEGYKVSRKEKRNFPLILESPSPNQTSLYFCASTRTGTLPEAFFGQGTRLTVV
For B5, the “EC50 killing capacity (E:T ratio at which 50% of target cells were killed)” value [12] was 20 E:T ratio, the binding result [5] was “recognises” and the binding result [6] was “recognises”.

B6: TCR18.1 (TCR, V domains shown)
Valpha: B5 Valpha
Vbeta: EAQVTQNPRYLITVTGKKLTVTCSQNMNHEYMSWYRQDPGLGLRQIYYSMNVEVTDKGDVPEGYKVSRKEKRNFPLILESPSPNQTSLYFCASSRTSGISYEQYFGPGTRLTVT
B6: recognises [5]; recognises [6].

B7: TCR6 (TCR, V domains shown)
Valpha: QKEVEQNSGPLSVPEGAIASLNCTYSDRGSQSFFWYRQYSGKSPELIMFIYSNGDKEDGRFTAQLNKASQYVSLLIRDSQPSDSATYLCAVSSNTGKLIFGQGTTLQVKP
Vbeta: DAGVIQSPRHEVTEMGQEVTLRCKPISGHNSLFWYRQTMMRGLELLIYFNNNVPIDDSGMPEDRFSAKMPNASFSTLKIQPSEPRDSAVYFCASKWGQGAGDTQYFGPGTRLTVL
B7: recognises [13]; recognises [14]; recognises [15].

B8: TCR19 (TCR, V domains shown)
Valpha: AQTVTQSQPEMSVQEAETVTLSCTYDTSENNYYLFWYKQPPSRQMILVIRQEAYKQQNATENRFSVNFQKAAKSFSLKISDSQLGDTAMYFCAFISGYSTLTFGKGTMLLVSP
Vbeta: B6 Vbeta with S94R, R95T, T96S, S97H, G98P, I99Q, S100T
B8: recognises [5]; recognises [6].

B9: TCR22 (TCR, V domains shown)
Valpha: SQQGEEDPQALSIQEGENATMNCSYKTSINNLQWYRQNSGRGLVHLILIRSNEREKHSGRLRVTLDTSKKSSSLLITASRAADTASYFCATDEGGAQKLVFGQGTRLTINP
Vbeta: DVKVTQSSRYLVKRTGEKVFLECVQDMDHENMFWYRQDPGLGLRLIYFSYDVKMKEKGDIPEGYSVSREKKERFSLILESASTNQTSMYLCATVGRGEDRGEQFFGPGTRLTVL
B9: recognises [7]; recognises [8]; recognises [9].

B10: TCR4 (TCR, V domains shown)
Valpha: AQSVTQLGSHVSVSEGALVLLRCNYSSSVPPYLFWYVQYPNQGLQLLLKYTSAATLVKGINGFEAEFKKSETSFHLTKPSAHMSDAAEYFCAVSNSGNTPLVFGKGTRLSVIA
Vbeta: AAGVIQSPRHLIKEKRETATLKCYPIPRHDTVYWYQQGPGQDPQFLISFYEKMQSDKGSIPDRFSAQQFSDYHSELNMSSLELGDSALYFCASSSTTGDGYTFGSGTRLTVV
B10: recognises [16]; recognises [17].

B11: TCR2 (TCR, V domains shown)
Valpha: AQKITQTQPGMFVQEKEAVTLDCTYDTSDPSYGLFWYKQPSSGEMIFLIYQGSYDQQNATEGRYSLNFQKARKSANLVISASQLGDSAMYFCASREGSARQLTFGSGTQLTVLP
Vbeta: DVKVTQSSRYLVKRTGEKVFLECVQDMDHENMFWYRQDPGLGLRLIYFSYDVKMKEKGDIPEGYSVSREKKERFSLILESASTNQTSMYLCASDSADTQYFGPGTRLTVL
B11: recognises [18].

B12: TCR8 (TCR, V domains shown)
Valpha: GQNIDQPTEMTATEGAIVQINCTYQTSGFNGLFWYQQHAGEAPTFLSYNVLDGLEEKGRFSSFLSRSKGYSYLLLKELQMKDSASYLCAPSSNTGKLIFGQGTTLQVKP
Vbeta: DAGVIQSPRHEVTEMGQEVTLRCKPISGHNSLFWYRQTMMRGLELLIYFNNNVPIDDSGMPEDRFSAKMPNASFSTLKIQPSEPRDSAVYFCASSLPQETQYFGPGTRLLVL
B12: recognises [19].

B13: TCR20 (TCR, V domains shown)
Valpha: QKEVEQNSGPLSVPEGAIASLNCTYSDRGSQSFFWYRQYSGKSPELIMFIYSNGDKEDGRFTAQLNKASQYVSLLIRDSQPSDSATYLCAVNAPRPGYSTLTFGKGTMLLVSP
Vbeta: DVKVTQSSRYLVKRTGEKVFLECVQDMDHENMFWYRQDPGLGLRLIYFSYDVKMKEKGDIPEGYSVSREKKERFSLILESASTNQTSMYLCASSLSMNTEAFFGQGTRLTVV
With B13 the “EC50 killing capacity (E:T ratio at which 50% of target cells were killed)” value [20] was 0.8 E:T ratio, the binding result [21] was “recognises” and the binding result [22] was “recognises”.
